According to patent publication US20250276075A1, “METHODS OF TREATING AXL-EXPRESSING CANCERS WITH ANTI-AXL ANTIBODIES, ANTIBODY FRAGMENTS AND THEIR IMMUNOCONJUGATES” (BIOATLA, INC., priority 2020, published 2025):

Assay: Phase 1 clinical study of BA3011: safety (adverse events, DLT, MTD, RP2D)
Format: in vivo, human
Settings: Phase 1
Description: MTD evaluation will be based on the DLT-evaluable Population. The DLT-evaluable Population includes all patients enrolled in Phase 1 dose escalation who receive at least 1 full assigned dose of BA3011 and complete the safety follow-up through the DLT-evaluation period (defined as the time period from the first dose of BA3011 through 21 days post Dose 1) or experience any DLT during the DLT-evaluation period. Non-DLT-evaluable patients will be replaced. The safety evaluation will be based on the As-Treated Population. Adverse events (AEs) will be coded by Medical Dictionary for Regulatory Activities (MedDRA) and graded according to the NCI CTCAE v4.03, and the type, incidence, severity, and relationship to each IP will be summarized. If any associations of interest between AEs and baseline characteristics are observed, additional stratified results may be presented. All treatment-emergent AEs will be summarized by MedDRA system organ class and preferred term. Laboratory abnormalities with toxicity grades according to the NCI CTCAE will be summarized.
A DLT is defined as meeting 1 of the following criteria during the 21-day DLT evaluation period or a treatment-related toxicity of any grade requiring dose delay of 1 week or more between the first and second cycles: • Non-hematologic Toxicity • For non-hematologic toxicities, DLT will be defined as any National Cancer Institute (NCI) Common Terminology Criteria for Adverse Events (CTCAE) v4.03 (published 14 Jun. 2010) Grade 3 or greater toxicity at least possibly related to treatment, except for: • Grade 3 fatigue. • Grade 3 nausea and vomiting lasting less than 24 hours. • Grade 3 non-hematologic laboratory abnormalities that are asymptomatic and resolve to Grade 1 or baseline (if the patient entered the study with existing toxicity) within 14 days. • Grade 3 or 4 allergic or hypersensitivity reaction at first occurrence in the absence of prophylactic steroid that resolves in less than 6 hours with appropriate clinical intervention
• DLT for hematologic toxicity, using NCI CTCAE v4.03, will be defined as: • Grade 4 neutropenia lasting greater than 7 days. • Grade 3 or 4 febrile neutropenia. • Grade 4 platelet count (<25,000/mm3) at any time.
Study BA3011-001 was an ongoing, multi-center, open-label, Phase 1/2 first-in-human trial of BA3011.
In Phase 1 (NCT03425279), BA3011 was administered once (Q3W) or twice (2Q3W) every 3 weeks via intravenous (IV) infusion.

[1] = 0.3 mg/kg Q3W, 1 sarcoma patient
[2] = 1.2 mg/kg 2Q3W, 2 sarcoma patients
[3] = 1.8 mg/kg 2Q3W, 19 sarcoma patients
[4] = 1.8 mg/kg Q3W, 2 sarcoma patients
[5] = 2.4 mg/kg Q3W, 2 sarcoma patients
[6] = All TEAEs, All Grades, sarcoma patients

B1: Mecbotamab vedotin (conjugate, chains of the INN, looked up)
VH: EVQLVQSGAEVKKPGATVKISCKVSGYSFWGATMNWIRQPPGKGLEWIGLIKPSNGGTSYNQKFKGRVTISADKSISTAYLQWSSLKASDTAMYYCAHGHYESYEAMDYWGQGTLVTVSS
VL: DIQMTQSPSSLSASVGDRVTITCKASQDVVSAVAWYQQKPGQAPRLLIYWQDTRHTGVPSRFSGSGSGTEFTLTISSLQPDDFATYYCQEHFSPPLTFGQGTKVEIK
modifications: MC-vc-PAB-MMAE conjugate
In the case of B1, the “Any TEAE, % of patients” value [1] is reported as 100.0%, the “Any TEAE, no. of patients” value [1] is reported as 1 and the “Any related serious TEAE, no. of patients” value [1] is reported as 0. The “Any serious TEAE, no. of patients” value [1] was 0, the “Related TEAE leading to treatment discontinuation, no. of patients” value (“Related TEAE leading … no. of patients” below) [1] was 0 and the “Related TEAEs with CTCAE grade 3 or 4, no. of patients” value (“Related TEAEs … no. of patients” below) [1] was 0. For the same molecule, the “TEAE leading to treatment discontinuation, no. of patients” value [1] was 0, the “TEAE with CTCAE grade 3 or 4, no. of patients” value [1] was 0 and the “TEAEs leading to death, no. of patients” value [1] was 0. The “Any TEAE, % of patients” value [2] was 100.0%, the “Any TEAE, no. of patients” value [2] was 2 and the “Any related serious TEAE, no. of patients” value [2] was 0. The “Any serious TEAE, no. of patients” value [2] was 0, the “Related TEAE leading … no. of patients” value [2] was 0 and the “Related TEAEs … no. of patients” value [2] was 0. For the same molecule, the “TEAE leading to treatment discontinuation, no. of patients” value [2] was 0, the “TEAE with CTCAE grade 3 or 4, % of patients” value [2] was 100.0% and the “TEAE with CTCAE grade 3 or 4, no. of patients” value [2] was 2. The “TEAEs leading to death, no. of patients” value [2] was 0, the “Any TEAE, % of patients” value [3] was “(100.0%)” and the “Any TEAE, no. of patients” value [3] was 19. For the same molecule, the “Any related serious TEAE, % of patients” value [3] was “(5.3%)”, the “Any serious TEAE, % of patients” value [3] was “(36.8%)” and the “Any serious TEAE, no. of patients” value [3] was 7. The “Related TEAE leading to treatment discontinuation, % of patients” value [3] was “(10.5%)”, the “Related TEAEs with CTCAE grade 3 or 4, % of patients” value [3] was “(57.9%)” and the “Related TEAEs … no. of patients” value [3] was 11. The “TEAE leading to treatment discontinuation, % of patients” value [3] was “(10.5%)”, the “TEAE leading to treatment discontinuation, no. of patients” value [3] was 2 and the “TEAE with CTCAE grade 3 or 4, % of patients” value [3] was “(68.4%)”. For the same molecule, the “TEAE with CTCAE grade 3 or 4, no. of patients” value [3] was 13, the “TEAEs leading to death, no. of patients” value [3] was 0 and the “Any related serious TEAE, no. of patients” value (1.8 mg/kg 2Q3W, 19 sarcoma patients, hepatic encephalopathy, CTCAE grade 2) was 1. The “Related TEAE leading … no. of patients” value (1.8 mg/kg 2Q3W, 19 sarcoma patients, neuropathy peripheral grade 2, fatigue grade 3) was 2, the “Any TEAE, % of patients” value [4] was “(100.0%)” and the “Any TEAE, no. of patients” value [4] was 2. For the same molecule, the “Any related serious TEAE, no. of patients” value [4] was 0, the “Any serious TEAE, % of patients” value [4] was “(50.0%)” and the “Any serious TEAE, no. of patients” value [4] was 1. For the same molecule, the “Related TEAE leading … no. of patients” value [4] was 0, the “Related TEAEs … no. of patients” value [4] was 0 and the “TEAE leading to treatment discontinuation, no. of patients” value [4] was 0. For the same molecule, the “TEAE with CTCAE grade 3 or 4, % of patients” value [4] was “(50.0%)”, the “TEAE with CTCAE grade 3 or 4, no. of patients” value [4] was 1 and the “TEAEs leading to death, no. of patients” value [4] was 0. For the same molecule, the “Any TEAE, % of patients” value [5] was “(100.0%)”, the “Any TEAE, no. of patients” value [5] was 2 and the “Any related serious TEAE, no. of patients” value [5] was 0. For the same molecule, the “Any serious TEAE, % of patients” value [5] was “(50.0%)”, the “Any serious TEAE, no. of patients” value [5] was 1 and the “Related TEAE leading … no. of patients” value [5] was 0. For the same molecule, the “Related TEAEs with CTCAE grade 3 or 4, % of patients” value [5] was “(50.0%)”, the “Related TEAEs … no. of patients” value [5] was 1 and the “TEAE leading to treatment discontinuation, no. of patients” value [5] was 0. For the same molecule, the “TEAE with CTCAE grade 3 or 4, % of patients” value [5] was “(50.0%)”, the “TEAE with CTCAE grade 3 or 4, no. of patients” value [5] was 1 and the “TEAEs leading to death, no. of patients” value [5] was 0. The “Alanine aminotransferase increased, %” value [6] was “(46.2) %”, the “Alopecia, %” value [6] was “(23.9) %” and the “Anemia, %” value [6] was “(15.4) %”. For the same molecule, the “Arthralgia, %” value [6] was “(23.9) %”, the “Aspartate aminotransferase increased, %” value [6] was “(42.3) %” and the “Blood alkaline phosphatase increased, %” value [6] was “(23.9) %”. The “Blood bilirubin increased, %” value [6] was “(3.8) %”, the “Bone pain, %” value [6] was “(26.9) %” and the “Constipation, %” value [6] was “(26.9) %”. For the same molecule, the “Decreased appetite, %” value [6] was “(23.9) %”, the “Diarrhea, %” value [6] was “(26.9) %” and the “Fatigue, %” value [6] was “(61.5) %”. For the same molecule, the “Hypokalemia, %” value [6] was “(15.4) %”, the “Hyponatremia, %” value [6] was “(11.5) %” and the “Lymphocyte count decreased, %” value [6] was “(7.7) %”. The “Nausea, %” value [6] was “(58.3) %”, the “Neutrophil count decreased, %” value [6] was “(26.9) %” and the “Patients with at least one TEAE, %” value [6] was “(100.0) %”. The “Peripheral neuropathy, %” value [6] was “(15.4) %”.
